How the values were obtained:
[1] = target: T1, EspB of enterohemorrhagic E. coli (EHEC); assay: western blot of culture supernatants with mAb-EspB-B7
T1 construct: also called EHEC EspB

[2] = target: T2, Recombinant His-tagged EspB (EspB-His), EPEC O127:H6 strain E2348/69; assay: ELISA, EspB-coated plate; mAb incubated with NaCl, curve labelled 274mM
T2 construct: also called purified EspB; full-length EspB

[3] = target: T2, Recombinant His-tagged EspB (EspB-His), …; assay: ELISA, EspB-coated plate; mAb incubated in goat serum with 1% human serum
[4] = target: T2, Recombinant His-tagged EspB (EspB-His), …; assay: ELISA, EspB-coated plate; mAb incubated in horse serum with 1% human serum
[5] = target: T2, Recombinant His-tagged EspB (EspB-His), …; assay: ELISA, EspB-coated plate; mAb incubated with NaCl, curve labelled 45.6mM
[6] = target: T2, Recombinant His-tagged EspB (EspB-His), …; assay: ELISA, EspB-coated plate; mAb incubated in 3% milk in PBS
[7] = target: T2, Recombinant His-tagged EspB (EspB-His), …; assay: ELISA, EspB-coated plate; mAb incubated with NaCl, curve labelled 411mM
[8] = target: T2, Recombinant His-tagged EspB (EspB-His), …; assay: SPR (Biacore, EspB amine-coupled to a CM5 chip, mAb injected at 10-90 nM, steady-state fit); ELISA was run as well
[9] = target: T3, EspB homolog of Salmonella enterica serovar Typhimurium (Salmonella enterica serovar Typhimurium, UniProt D0ZV21 1-409); assay: western blot of culture supernatants, mAb-EspB-B7 as primary antibody
T3 construct: also called Salmonella EspB homolog
T3 sequence: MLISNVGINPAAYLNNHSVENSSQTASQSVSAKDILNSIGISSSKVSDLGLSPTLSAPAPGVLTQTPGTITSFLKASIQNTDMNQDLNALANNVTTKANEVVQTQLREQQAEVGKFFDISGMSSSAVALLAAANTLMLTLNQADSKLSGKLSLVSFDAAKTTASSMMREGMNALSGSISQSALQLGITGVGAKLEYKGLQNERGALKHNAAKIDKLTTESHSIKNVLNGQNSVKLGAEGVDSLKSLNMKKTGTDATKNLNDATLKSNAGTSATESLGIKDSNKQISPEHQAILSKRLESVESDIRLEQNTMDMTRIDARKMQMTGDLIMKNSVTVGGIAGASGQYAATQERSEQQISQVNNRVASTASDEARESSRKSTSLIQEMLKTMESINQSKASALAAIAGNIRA

[10] = target: T4, EspB of Citrobacter rodentium DBS100 (Citrobacter rodentium); assay: as above
T4 construct: also called C. rodentium EspB

[11] = target: T2, Recombinant His-tagged EspB (EspB-His), …; assay: ELISA, EspB-coated plate, serially diluted mAb, anti-human IgG-HRP

B1: mAb-EspB-B7 (antibody, V domains shown)
VH: EVQLLESGGGLVQPGGSLRLSCAASGFTFSHYAMNWVRQAPGKGLEWVSAINSNGDSTYYPDTVKDRFTISRDNSKNTLYLQMNSLRAEDTAVYYCARDRRAGYFDYWGQGTLVTVSS
VL: DIVLTQPPSASGTPGQRVTISCSGSRDNIGKNYVSWYQQLPGTAPKLLIYRNNQRPSGVPDRFSGSKSGTSASLAISGLRSEDEADYYCSAWDTSLNAYVFGPGTQLTVL
notes: also called mAb-B7; anti-EspB antibody
binding result [1]: binds | EC50 (read off the curve) [2]: ~7 nM | EC50 (read off the curve) [3]: ~2 nM | EC50 (read off the curve) [4]: ~3 nM | EC50 (read off the curve) [5]: ~3 nM | EC50 (read off the curve) [6]: ~5 nM | EC50 (read off the curve) [7]: ~10 nM | Kd [8]: 17.4 nM | binding result [9]: no binding | binding result [10]: binds | EC50 (read off the curve) [11]: ~8 nM

From patent publication US20250264433A1 (STATE OF ISRAEL MINISTRY OF AGRICULTURE AND RURAL …, published 2025)
